Source: article PMC10681739, “High-throughput data and modeling reveal insights into the mechanisms of cooperative DNA-binding by transcription factor proteins”

Biological target: T1, ETS1 x2 (Homo sapiens, UniProt P14921)
T1 sequence: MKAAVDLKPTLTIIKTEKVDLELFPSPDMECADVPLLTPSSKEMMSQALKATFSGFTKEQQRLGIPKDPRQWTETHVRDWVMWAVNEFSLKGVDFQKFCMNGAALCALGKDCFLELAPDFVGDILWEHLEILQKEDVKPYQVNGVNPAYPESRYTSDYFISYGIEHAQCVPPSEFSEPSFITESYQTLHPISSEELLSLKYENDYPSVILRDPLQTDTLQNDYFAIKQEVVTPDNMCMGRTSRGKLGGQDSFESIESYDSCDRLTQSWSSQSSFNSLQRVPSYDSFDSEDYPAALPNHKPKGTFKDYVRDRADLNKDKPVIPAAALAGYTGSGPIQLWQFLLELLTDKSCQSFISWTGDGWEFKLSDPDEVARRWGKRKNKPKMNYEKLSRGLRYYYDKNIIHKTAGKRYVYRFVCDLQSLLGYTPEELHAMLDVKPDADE
Assay: gcPBM; 10 nM ETS1
Conditions: tags: N-terminal GST (pDEST15), kept (PMC6008103); chain copies: 2; label: surface-attached array probe

B1: Table S4 A row 2241 (dsDNA)
DNA 1: GCGGCCTCCAAACATCCTCCGGAAGCTGCCACCTAC
DNA 2: GTAGGTGGCAGCTTCCGGAGGATGTTTGGAGGCCGC
binding signal: 2030 PBM fluorescence, median of replicate spots

B2: Table S4 A row 1821 (dsDNA)
DNA 1: TAATCTGCAACTTCCCTGTTCTTCCTGTTAGATGTG
DNA 2: CACATCTAACAGGAAGAACAGGGAAGTTGCAGATTA
binding signal: 2270 PBM fluorescence, median of replicate spots

B3: Table S4 A row 136 (dsDNA)
DNA 1: TCTTTTGATTGGGCTTCCTTCCTGTGTTTTCTCAGA
DNA 2: TCTGAGAAAACACAGGAAGGAAGCCCAATCAAAAGA
binding signal: 2710 PBM fluorescence, median of replicate spots

B4: Table S4 A row 502 (dsDNA)
DNA 1: CAGAGCAGCAGGAAACCATTATTTCCTCCTAGGTCT
DNA 2: AGACCTAGGAGGAAATAATGGTTTCCTGCTGCTCTG
binding signal: 2360 PBM fluorescence, median of replicate spots

B5: Table S4 A row 1213 (dsDNA)
DNA 1: ACAATATCCCAGGAAACAGACATCCGCGTGCTCGCG
DNA 2: CGCGAGCACGCGGATGTCTGTTTCCTGGGATATTGT
binding signal: 1480 PBM fluorescence, median of replicate spots

B6: Table S4 A row 2604 (dsDNA)
DNA 1: AGGGGGCGGCGGCGGATGCCGGAAGAGTGCCCGCCC
DNA 2: GGGCGGGCACTCTTCCGGCATCCGCCGCCGCCCCCT
binding signal: 1530 PBM fluorescence, median of replicate spots

B7: Table S4 A row 2116 (dsDNA)
DNA 1: CCCAGCGGGCGAACTTCCTTTCCGCGCAACTCGCCC
DNA 2: GGGCGAGTTGCGCGGAAAGGAAGTTCGCCCGCTGGG
binding signal: 2660 PBM fluorescence, median of replicate spots

B8: Table S4 A row 1205 (dsDNA)
DNA 1: CTTAAACTGGAGGAAGTAAGTTTCCGTTAAAATGTG
DNA 2: CACATTTTAACGGAAACTTACTTCCTCCAGTTTAAG
binding signal: 1760 PBM fluorescence, median of replicate spots

B9: Table S4 A row 110 (dsDNA)
DNA 1: TTGAGGGCTGGGCGGAAACGGAAAAGGCTAAGGGCC
DNA 2: GGCCCTTAGCCTTTTCCGTTTCCGCCCAGCCCTCAA
binding signal: 2150 PBM fluorescence, median of replicate spots

B10: Table S4 A row 2690 (dsDNA)
DNA 1: CGGGCCTCCGCCTTCCGCCCGGAACCCACCCCCGGG
DNA 2: CCCGGGGGTGGGTTCCGGGCGGAAGGCGGAGGCCCG
binding signal: 1830 PBM fluorescence, median of replicate spots

B11: Table S4 A row 2174 (dsDNA)
DNA 1: CAGCACGGGCCGCTTCCTTATCCGGTAAAGTGCGGG
DNA 2: CCCGCACTTTACCGGATAAGGAAGCGGCCCGTGCTG
binding signal: 2460 PBM fluorescence, median of replicate spots

B12: Table S4 A row 834 (dsDNA)
DNA 1: AAGGCAGGAGGATGTGCTCGCGGTTTCCTGTGATGT
DNA 2: ACATCACAGGAAACCGCGAGCACATCCTCCTGCCTT
binding signal: 1650 PBM fluorescence, median of replicate spots

B13: Table S4 A row 1239 (dsDNA)
DNA 1: GGGAGGCCCTGCAGGAAGCAGGATGTTGACCCGGAG
DNA 2: CTCCGGGTCAACATCCTGCTTCCTGCAGGGCCTCCC
binding signal: 2610 PBM fluorescence, median of replicate spots

B14: Table S4 A row 548 (dsDNA)
DNA 1: GCGCACCGAAACGGAAGAACTTCCTTGATTAGCATA
DNA 2: TATGCTAATCAAGGAAGTTCTTCCGTTTCGGTGCGC
binding signal: 2740 PBM fluorescence, median of replicate spots

B15: Table S4 A row 1195 (dsDNA)
DNA 1: GGCGTCGCCGCCGGATTCGACTTCCTGACGTCAGGC
DNA 2: GCCTGACGTCAGGAAGTCGAATCCGGCGGCGACGCC
binding signal: 1940 PBM fluorescence, median of replicate spots

B16: Table S4 A row 356 (dsDNA)
DNA 1: TTGGGCCATTGTTTTCCTGCTTCCTCCCTTCAAGCC
DNA 2: GGCTTGAAGGGAGGAAGCAGGAAAACAATGGCCCAA
binding signal: 1590 PBM fluorescence, median of replicate spots

B17: Table S4 A row 180 (dsDNA)
DNA 1: AGCAATACCAGGAAATGTGTTGCTTCCTAAAGTGAT
DNA 2: ATCACTTTAGGAAGCAACACATTTCCTGGTATTGCT
binding signal: 1370 PBM fluorescence, median of replicate spots

B18: Table S4 A row 2126 (dsDNA)
DNA 1: ACGCGAAAGCCCGGATAGACTTCCGCGCAGGGGCGG
DNA 2: CCGCCCCTGCGCGGAAGTCTATCCGGGCTTTCGCGT
binding signal: 2080 PBM fluorescence, median of replicate spots
